Measured values reported in US20180265915A1, “TRANSCRIPTION FACTOR DECOYS” (priority 2008, published 2018).
“Also recorded” adds a separate entry of the source. {P} = phosphate

Experiments:
K. pneumoniae = assay: KP_Sig TFD growth assay in vitro; format: cell-based, Klebsiella pneumoniae; details: PCR_TFD, transfected using a cell penetrating peptide
Text: Cells were transfected as described in Example 13, using a cell penetrating peptide. […] The two controls used were: untreated cells (K. pneumoniae) and a control TFD consisting of a scrambled sequence.

S. aureus = assay: Growth of S. aureus transfected by electroporation under conditions of stress; format: cell-based, Staphylococcus aureus; details: BHI or LB media with 30 mM KOH, vs mock-electroporation or unrelated sequence
Description: For example, stress response can be induced in a suitable strain e.g. S. aureus by growing in, e.g. LB media under conditions of stress, e.g. alkali conditions. For example LB media containing KOH, e.g. at 30 mM may be used. Untreated bacteria grow well in this media, due to the induction of the stress response by the alkali conditions, whereas those treated with the SA_sigB decoy, targeting the regulation of sigB which is a major part of the regulatory response to stress, grow poorly.
Decoy polynucleotides were transfected into S. aureus by electroporation. Bacterial cells were prepared by standard methods. Briefy, cells were grown to early exponential phase in LB media at 37° C. as defined as reaching an Absorbance of 0.3 at […]. The cells were chilled to 4° C. and harvested by low speed centrifugation and washed three times in a similar volume of sterile, ice-cold 10% (v/v) glycerol. Finally the cells were resuspended in a tenth of their original volume in 10% glycerol. […] 200 μl of cells were aliquoted into wells of a 96 well plate that was incubated at 37° C. with moderate shaking, growth was monitored by measuring absorbance.

E. coli = assay: FabB TFD growth assay with cerulenin in LB, polymixin co-transfectant; format: cell-based, Escherichia coli
Description: For example, a FabB decoy which targets the regulation of genes essential for fatty acid synthesis may be tested against suitable strain, e.g. E. coli grown in e.g. Luria-Bertani LB media (1% [w/v] Bacto-tryptone, 0.5% [w/v] Yeast extract, 1% [w/v] NaCl) in the presence of an antibiotic which acts on the process of fatty acid synthesis, e.g. Cerulenin.
The effect of TFDs on the growth of E. coli bacterial cultures was measured as described in Example 4.1 with a few modifications: the media used was LB; the co-transfectant used was 40 nM polymixin, rather than gramicidin; the media was also supplemented with 10 μg/ml Cerulenin (CER). CER is an antibiotic that acts on fatty acid synthesis.

[1] = tested on: Staphylococcus aureus EMRSA 16; assay: Mouse sepsis model, tissue burden study; format: in vivo
Description: The mouse sepsis study was performed by Euprotec (UK). Mice used in this study, male CD1 mice were supplied by Charles River (Margate UK) and were specific pathogen free (16-18 g at delivery). All mice weighed 22-25 g at the beginning of the experiment.
For the tissue burden study, animals were treated in groups of 8 mice per treatment group, therefore 48 in total for the study. 2×10 ml cultures of Staphylococcus aureus EMRSA 16 were prepared and placed on orbital shaker (220 rpm) overnight at 37° C. The following day, the Staphylococcus aureus EMRSA 16 cultures were removed from shaker, pelleted and washed twice before being resuspended in saline to an OD of 0.132 (1.5×10^8 cfu/ml). This stock solution of Staphylococcus aureus EMRSA 16 was then further diluted 1:1.5 in saline (1×10^8 cfu/ml) i.e. 2.0×10^7 bacteria per mouse. 48 mice were then infected with 0.2 ml of the 1.0×10^8/mL suspension. The number of Staphylococcus aureus EMRSA 16 bacteria per mL in the remainder of the suspensions after inoculation was also counted to confirm infection load. Mice were treated 1, 9 and 17 hours post infection with either compound or vehicle, though vancomycin was only administered after 1h. The treatments were as previously a mixture of TFD/DOTAP/Lysostaphin using a concentration of InM/kg TFD in a 5:1 molar ratio with DOTAP and 63 μg/kg Lysostaphin. After 25 hours post infection all animals were weighed and then euthanized. The kidneys were immediately removed and homogenised in ice cold sterile phosphate buffered saline+0.05% Tween 80. Organ homogenates were quantitatively cultured onto CLED agar and incubated at 37° C. for up to 3 days and colonies counted. The data from the culture burdens was analysed by the Kruskal-Wallis test using Stats Direct.

EMRSA-16 = assay: WalR_TFD in vitro growth and viable count assays on EMRSA-16; format: cell-based, Staphylococcus aureus; details: for effect on growth of EMRSA-16 in vitro: 1 nM TFD, DOTAP, Lysostaphin, BHI
Description: S. aureus EMRSA16 cultures were grown and maintained in BHI media (Becton Dickenson). Frozen stocks were prepared by mixing equal volumes of a culture in early exponential growth (OD of 0.3 at A600) with 50% glycerol and freezing at −80° C.
TFD-DOTAP complexes were formed by mixing 1 ug of TFD with 2 μg of DOTAP (Roche) and incubating at room temperature for 10 min on the bench. The TFD complex was then mixed with inoculated medium supplemented with 10 ng/ml Lysostaphin (Sigma; L9043), aliquoted into 96 well flat-bottomed plates and growth was analysed by culturing at 37° C. with shaking in a BioTek plate reader.
EMRSA-16, an MRSA strain endemic in UK hospitals, was used in the study (Cox, Mallaghan et al. 1995). TFDs were mixed with a commercially available lipid formulation, DOTAP, and mixed with media inoculated with EMRSA-16 and Lysostaphin. Lysostaphin is a lysozyme agent that acts on the walls of S. aureus, use of it in this experiment was to thin the outer peptidoglycan layer of the bacteria and allow the TFD to transfect the cell following fusion of the DOTAP carrier with the exposed inner membrane of the bacterium. […] The bacteria that were not killed by WalR_TFD treatment were sub-cultured in order to determine whether there was any incidence of resistance. The process was repeated a total of four times and both the reduction in viable counts (FIG. 17B) and in vitro growth curves were recorded (FIG. 17C, black squares: bacteria in fourth passage).
In order to determine whether TFDs killed bacteria on contact or needed prolonged exposure to work, EMRSA-16 were transfected with 1 nM WalR_TFD/DOTAP complex and incubated for 30 minutes before being microdiluted into fresh media, without any TFD complexes or Lysostaphin.

EMRSA15 = assay: DB-TFD growth assay on EMRSA15 with Lysostaphin co-treatment; format: cell-based, Staphylococcus aureus; details: 10 nM DB-TFD; 0.5 to 2.5 pg/ml Lysostaphin
Description: Growth assays were performed as described for Example 7.1 with the sole difference being that the media was supplemented with between 0.5 and 2.5 pg/ml Lysostaphin instead of Gramicidin. Lysostaphin is a lysozyme-like enzyme that is specific for the walls of S. aureus.

[2] = tested on: clinically-isolated MRSA strain MRSA-5; assay: Dumbbell Sig TFD growth assay on a clinically-isolated MRSA strain; format: cell-based, Staphylococcus aureus; details: 10 nM TFD, dumbbell configuration
Description: A growth assay was performed as described in Example 5.1 using the Sig TFD in its dumbbell configuration and a clinically-isolated MRSA strain.

[3] = statistical analysis of in vivo results

KP_Sig: sigma 54 binding site from the K. pneumoniae glnA promoter, SEQ ID NO: 59, in a PCR_TFD (DNA TGGCACAGATTTCGCT; listed as DNA, chemistry not fully specified; listed as Klebsiella pneumoniae)
effect on K. pneumoniae cell growth in vitro (K. pneumoniae): prevented cell growth in vitro
effect on K. pneumoniae cell growth in vitro (K. pneumoniae; listed as KP_Sig TFD): kills K. pneumoniae in vitro

LytM TFD: YycG/YycF binding site in LytM promoter, SEQ ID NO: 7 (DNA GCTATTTTGTAATGACAATGTAATGAGTTTAGTAAAAA; transcription factor decoy, made by PCR or oligonucleotide ligation, further chemistry not given here; listed as Staphylococcus aureus)
growth of S. aureus under conditions of stress (S. aureus): capable of slowing the growth

C/C=C/C/C=C/CCC(=O)[C@H]1O[C@H]1C(N)=O [cerulenin, reference compound]
effect of cerulenin on growth of E. coli (E. coli; 10 μg/ml Cerulenin): no noticeable effect on growth
cerulenin concentration at which it begins to inhibit cell growth (E. coli; in the presence of the control TFD): 20 µg/mL

CN[C@H](CC(C)C)C(=O)N[C@H]1C(=O)N[C@@H](CC(N)=O)C(=O)N[C@H]2C(=O)N[C@H]3C(=O)N[C@H](C(=O)N[C@H](C(=O)O)c4cc(O)cc(O)c4-c4cc3ccc4O)[C@H](O)c3ccc(c(Cl)c3)Oc3cc2cc(c3O[C@@H]2O[C@H](CO)[C@@H](O)[C@H](O)[C@H]2O[C@H]2C[C@](C)(N)[C@H](O)[C@H](C)O2)Oc2ccc(cc2Cl)[C@H]1O [Vancomycin, vancomycin, reference compound]
Kruskal-Wallis all pairwise comparisons (Dwass-Steel-Chritchlow-Fligner) of kidney burden, versus Vehicle [1, 3]: 0.0173

B1: WalR_TFD: dumbbell TFD containing the binding site for the WalR protein as in the lytM promoter, SEQ ID NOs: 48 & 49 (nucleic acid, listed as Staphylococcus aureus)
chain 1: CTTGGTTTTTCCAAGTAATGAATGAGTTTAAAGCCCATGTAAAAGGGGTATCAGTAC
chain 2: CCCTCTTTTTGAGGGGTACTGATACCCCTTTTACATGGGCTTTAAACTCATTCATTA
modifications: dumbbell structure, further chemistry not given here
effect on growth of EMRSA-16 in vitro (EMRSA-16): prevented growth of EMRSA-16
growth after limited contact (EMRSA-16; 1 nM, incubated 30 minutes then diluted into fresh media without TFD or Lysostaphin, followed 48 hours): unable to grow; also recorded: no growth was observed
total viable counts, reduction in number of living cells (EMRSA-16; after in vitro growth experiment): reduced the number of living cells by five-fold orders of magnitude
bacteriocidal activity against MRSA (EMRSA-16; in vitro and in vivo): rapid bacteriocidal activity at nanomolar concentrations
development of resistance to TFD-mediated killing (EMRSA-16; surviving bacteria sub-cultured and re-treated, repeated rounds): No resistance mechanism has been detected; also recorded: no evidence for the development of a resistance mechanism
inhibition of bacterial growth of EMRSA15 (EMRSA15): prevents growth of EMRSA15
reduction in kidney burden of EMRSA-16 ([1]; mice, systemic injection 1, 9 and 17 hours post infection, 1 nM TFD complex, compared to Scr_TFD control): as effective as vancomycin in killing EMRSA-16
Kruskal-Wallis all pairwise comparisons (Dwass-Steel-Chritchlow-Fligner) of kidney burden, versus Vancomycin [1, 3]: 0.2549
Kruskal-Wallis all pairwise comparisons (Dwass-Steel-Chritchlow-Fligner) of kidney burden, versus Vehicle [1, 3]: 0.0062

B2: Scr_TFD: TFD containing a scrambled version of the WalR binding site, SEQ ID NOs: 46 & 47 (nucleic acid, listed as Staphylococcus aureus)
chain 1: CTTGGTTTTTCCAAGGTAATATGACAAGATTGTAAATGACCTAGTTGAGAGATGCCA
chain 2: CCCTCTTTTTGAGGGTGGCATCTCTCAACTAGGTCATTTACAATCTTGTCATATTAC
modifications: dumbbell structure, further chemistry not given here
effect on growth of EMRSA-16 in vitro (EMRSA-16): no detectable effect on bacterial growth
inhibition of bacterial growth of EMRSA15 (EMRSA15): no effect
Kruskal-Wallis all pairwise comparisons (Dwass-Steel-Chritchlow-Fligner) of kidney burden, versus 1 nM WalR_TFD [1, 3]: 0.0043
Kruskal-Wallis all pairwise comparisons (Dwass-Steel-Chritchlow-Fligner) of kidney burden, versus Vancomycin [1, 3]: 0.0062
Kruskal-Wallis all pairwise comparisons (Dwass-Steel-Chritchlow-Fligner) of kidney burden, versus Vehicle [1, 3]: 0.7804

B3: SA3 TFD: Sig dumbbell TFD from phosphorylated oligonucleotides SEQ ID NOs: 40 & 41 (nucleic acid, listed as Staphylococcus aureus)
chain 1: CTTGGTTTTTCCAAGGAAGATTAGAAATTATTTCGATGGGTATATAATA
chain 2: CCGTCTTTTTGACGGTATTATATACCCATCGAAATAATTTCTAATCTTC
modifications: 5' {P}, sugars by position and backbone not given here; further chemistry not fully specified
inhibition of bacterial growth of EMRSA15 (EMRSA15): capable of inhibiting bacterial growth
inhibition of cell growth of clinically-isolated MRSA strain [2]: repress the growth
